Experimental data as given in IntAct's records for PubMed 30679749.

Target: hs12a_human HSPA12A (UniProt O43301)
Chain of UniProt O43301 (O43301 whole entry): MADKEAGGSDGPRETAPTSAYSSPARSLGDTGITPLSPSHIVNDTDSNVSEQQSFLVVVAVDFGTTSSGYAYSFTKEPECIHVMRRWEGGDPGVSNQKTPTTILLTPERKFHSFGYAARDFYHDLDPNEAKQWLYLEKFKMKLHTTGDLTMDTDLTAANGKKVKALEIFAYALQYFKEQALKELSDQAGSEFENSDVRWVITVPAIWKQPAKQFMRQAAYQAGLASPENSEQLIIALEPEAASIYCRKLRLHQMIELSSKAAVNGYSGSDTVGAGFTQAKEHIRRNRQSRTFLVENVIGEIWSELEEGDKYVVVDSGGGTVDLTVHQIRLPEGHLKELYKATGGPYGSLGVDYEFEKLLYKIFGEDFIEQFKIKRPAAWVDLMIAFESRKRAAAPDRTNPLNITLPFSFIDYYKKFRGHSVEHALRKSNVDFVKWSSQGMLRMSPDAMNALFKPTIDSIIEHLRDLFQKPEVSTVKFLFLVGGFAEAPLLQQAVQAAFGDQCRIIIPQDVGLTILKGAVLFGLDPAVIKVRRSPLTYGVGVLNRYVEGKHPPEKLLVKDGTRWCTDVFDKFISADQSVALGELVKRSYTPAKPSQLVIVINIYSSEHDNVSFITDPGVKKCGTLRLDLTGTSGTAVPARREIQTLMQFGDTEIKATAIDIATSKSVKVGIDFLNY

Row | Substance | effect of a mutation on the interaction
1 | Sortilin-related receptor (Homo sapiens), Q92673 D2190A;D2191A | with no effect
2 | Sortilin-related receptor (Homo sapiens), Q92673 D2207A;D2208A | disrupting interaction strength
3 | Sortilin-related receptor (Homo sapiens), Q92673 E2194A;D2195A;D2196A;E2197A;D2198A | disrupting interaction strength
4 | Sortilin-related receptor (Homo sapiens), Q92673 F2205A;S2206A | with no effect
5 | Sortilin-related receptor (Homo sapiens), Q92673 T2203A;G2204A | with no effect
6 | Sortilin-related receptor (Homo sapiens), Q92673 V2209A;P2210A | with no effect
